Data taken from publication PMC10159993.

Experiments:
[1] = target: H2AK119-biotinylated 185 bp nucleosome; assay: FRET or BRET
[2] = target: KDM2A(2–685) (human) (UniProt Q9Y2K7); assay: FRET or BRET

Work on “KDM2A(2–685) K99E/R105E/R128E/R152E (from UniProt Q9Y2K7 2-685) (domain or fragment)” yielded a fold reduction of binding affinity against wild-type KDM2A [1] of 20 fold.
“KDM2A(2–685) R152E (from UniProt Q9Y2K7 2-685) (domain or fragment)” was tested, and the fold reduction of binding affinity against wild-type KDM2A [1] was 4 fold.
Substance “unmodified wild-type 147 bp nucleosome (complex)” has a ratio of IC50 (147 bp over 185 bp nucleosome as competitor) [2] of 10 fold.
